This is an account of results in patent US20250034245A1 (published 2025).

Positions count from the first letter of the chain named. A value given as a limit tells only on which side of the number the result lay.

By Kd is commonly meant the constant that tells how readily two partners part at equilibrium. Low values mean higher affinity, high ones lower affinity.

Sequences and labels used below:
B1: S8-ATX1E1 (antibody, V domains shown)
VH: EVQLVESGGGLVQPGRSLRLSCAASGFMFDDYVMHWVRQAPGKGLEWVSGINWNSDNIGYADSVKGRFTISRDNAKNSLFLQMNSLRVEDTALYYCAKDIDAAAFDYWGQGTLVTVSS
VL: DIVMTQSPLSLPVTPGEPASISCRSSQSLLHSNGYSYLAWYLQKPGQSPQLLIYLVSNRASGVPDRFTGSGSGTDFTLKISRVEAEDVGVYYCMQALQTPWTFGQGTKVEIK
B2: S8-ATX2F10 (antibody, V domains shown)
VH: EVQLVESGGDLVKSGGSLRLSCAASGFTFSDAWMSWVRQAPGKGLEWVGRIQSKTDGGTTDYVAPVKGRFTISRDDSKDTLYLHMNSLTTEDTAVYYCTTDLYYYGSGSYFLGQGTLVTVSS
VL: DIQMTQSPSSLSASVGDRVTITCRASQNIITYLNWYQQKPGKAPKLLIYAASSLQSGVPSRFSGSGSGTDFTLTISSLQPEDFAIYHCQQSYNVPTTFGQGTKLEIK
B3: S8-ATX2G9 (antibody, V domains shown)
VH: EVQLVESGGGVVRPGGSLRLSCAASGFTFDDYGMSWVRQAPGKGLEWVSGINWNGGSTGYADSVKGRFSISRDNAKNSLYLQMNSLRAEDTALYYCAREGITILRGVIIEDWYFDLWGRGTLVIVSS
VL: not shown
B4: S8-ATX2B11 (antibody, V domains shown)
VH: B3 VH with F29L, G56A, S57T, G59D, L79V, I103M, L104V, I124T
VL: not shown
B5: S8-ATX1E2 (antibody, V domains shown)
VH: EVQLVESGGGLVKPGESLRLSCAASGFTFSNAWMSWVRQAPGKGLEWVGRDGGARDYAAPVKGRFTISRDDSKNTLYLQMNTLKTEDTAVYYCTKGAFFFDYWGQGTLVTVSS
VL: EIVLTQSPGTLSLSPGERATLSCRASQSVISGYLAWYQQKPGQAPRLLIYGASRRATGITDRFSGSGSGTDFTLIISRLEPEDSAVYYCQQYDSSPRTFGQGTKVEIK
B6: S8-ATX1E4 (antibody, V domains shown)
VH: QVQLVQSGSELKKPGASVKVSCKTSGYTFTSYAMNWVRQAPGQGLEWMGWINTNTGNPTYAQGFRGRFVFSLDTSVSTAYLQISSLKAEDTAVYYCARDKYSSSWYWFDSWGQGTLVTVSS
VL: DIQMTQSPSSLSASVGDRVTITCRPSQNISSYLNWYQQKPGKAPKLLIYAASSLRSGVPSRFSGSGSGTDFTLTVSSLQPEDFANYYCQQSYSTPYTFGRGTKLEIK
B7: S8-ATX1B6 (antibody, V domains shown)
VH: QVQLVESGGGVVLPGRSLRLSCAASGFTFNIYGMHWVRQAPGKGLEWVAVISYDGNNKEYADSVKGRFTISRDSSRNTLYLQMNSLRAEDTAVYYCAKRGYGSSSLEFWGQGTLVTVSS
VL: DIQMTQSPSSLSASVGDRVTITCRSSQDIRNDLGWYQQKPGKAPKRLIYASSNLQSGVPSRFSGSGSGTEFTLTISSLQPDDFATYYCLQHNTYPYTFGQGTKLEIK
B8: S8-ATX1B4 (antibody, V domains shown)
VH: B7 VH with L13Q, N30S, E59D, A61T, S74N, R76K, R87T
VL: B7 VL with S25A, S51T, N53S, G66R, T69A, I75V, D81E
B9: S8-ATX2A3 (antibody, V domains shown)
VH: QVQLQESGPGLVKPSETLSLTCTVSGASISGYYWNWIRQPPGKGLEWIGYIHYSGTTNYNPSLKSRITISLDTSENQFSLRLSSVTAADTAVYYCARDWYTGYDWEGFDYWGQGTLVTVSS
VL: QSVLTQPPSVSGAPGQRVSFSCTGTSSNIGTGFDVHWYRQLPGTAPKVLIYNNNNRPSGVPDRFSASKSGTSASLAITGLQAEDEADYYCQSYDSSLSGSVFGGGTRLTVL
B10: S8-ATX1H4 (antibody, V domains shown)
VH: QVQLVQSGTEVKYPGASVKVSCKASGYTFIDYGISWVRQAPGQGLEWMGWISAYNGNTDYAQKLQGRVTMTTDTSTSTAYMDLRSLRSDDTAVYYCAREGEGYCTYGVCPSFDYWGQGTLVTVSS
VL: EIVLTQSPGTLSLSPGERATLSCRASQSVSSSYLAWYQQKPGQAPRLLIYGASTRGTGIPDRFSGSGSGTDFTLTISRLEPEDFALYYCQQYGSSPYTFGQGTKLEIK

For the assay, the target named is full-length human Siglec-8 (Siglec-8^FL) (human, UniProt Q9NYZ4 17-499). The assay can be described thus: BLI.
Chain of full-length human Siglec-8 (Siglec-8^FL) (Q9NYZ4 17-499): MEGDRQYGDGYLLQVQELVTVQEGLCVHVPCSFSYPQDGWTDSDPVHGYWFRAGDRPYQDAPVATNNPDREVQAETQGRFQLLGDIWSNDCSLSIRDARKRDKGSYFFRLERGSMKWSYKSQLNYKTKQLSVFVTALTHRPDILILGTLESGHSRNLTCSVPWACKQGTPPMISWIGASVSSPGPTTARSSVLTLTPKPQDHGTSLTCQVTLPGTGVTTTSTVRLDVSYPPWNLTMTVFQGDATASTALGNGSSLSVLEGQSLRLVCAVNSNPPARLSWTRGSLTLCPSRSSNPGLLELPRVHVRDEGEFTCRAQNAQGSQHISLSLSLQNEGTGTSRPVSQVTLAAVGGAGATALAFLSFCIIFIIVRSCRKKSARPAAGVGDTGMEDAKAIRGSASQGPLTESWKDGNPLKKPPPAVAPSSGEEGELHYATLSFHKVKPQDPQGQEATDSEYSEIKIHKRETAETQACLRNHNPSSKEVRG
Consider B1, for which binding was put at a Kd of 0.589 nM. This lies in the sub-nanomolar range.
The molecule B2 yielded a Kd of 100 nM.
Then B3, with 0.00413 nM; and B4, with 10 nM.
On to B5, for which the Kd came to 0.655 nM.
Then B6, with 0.917 nM; and B7, with 0.00219 nM; and B8, with 0.502 nM.
B9: the Kd was < 0.001 nM.
Then B10, with < 0.001 nM.
